From paper PMC8203837, “Optogenetically-induced multimerization of the dopamine transporter increases uptake and trafficking to the plasma membrane” (The Journal of Biological Chemistry, 2021)
Blank lines part the entries; values can stand above or below the molecule they belong to.

Columns and labels:
[1] = target: Cry2–mCh–DAT, optogenetic fusion chimera of cryptochrome 2 and DAT with an mCherry fluorescent reporter (Arabidopsis | not stated) (UniProt Q01959); assay: cell-surface biotinylation, SDS-PAGE and Western blot; HEK293 cells transfected with Cry2–DAT, kept in the dark (control); sulfo-NHS-SS-biotin at 4 °C, NeutrAvidin beads, 4–15% gradient gel
[2] = target: Cry2–mCh–DAT, optogenetic fusion chimera of cryptochrome 2 and DAT with an mCherry fluorescent reporter (Arabidopsis | not stated) (UniProt Q01959)
[3] = target: the molecule itself; assay: cross-linking; as a1, but cells treated with 10 μM METH for 0.5, 2, 10, 30 or 60 min before copper phenanthroline cross-linking
[4] = target: the molecule itself; assay: cross-linking; as a1, but cells treated with 10 μM DA for 0.5, 2, 10, 30 or 60 min before copper phenanthroline cross-linking
[5] = target: the molecule itself; assay: cross-linking; HEK293 cells stably expressing YFP–DAT, vehicle control; copper phenanthroline (100 μM CuSO4, 400 μM 1,10-phenanthroline) in PBS 10 min at RT, NEM quench, membrane enrichment (Mem-PER Plus), samples not heated, Western blot

stoichiometry N [1]: 2
IDT307 uptake in differentiated SH-SY5Y cells expressing Cry2–DAT, blue light against no blue light [2]: 2.5 fold
Molecule: Cry2–mCh–DAT, optogenetic fusion chimera of cryptochrome 2 and DAT with an mCherry fluorescent reporter (from UniProt Q01959 1-620)

B1: YFP–DAT (dopamine transporter with N-terminal YFP) (natural protein, UniProt Q01959 1-620, looked up)
chain: MSKSKCSVGLMSSVVAPAKEPNAVGPKEVELILVKEQNGVQLTSSTLTNPRQSPVEAQDRETWGKKIDFLLSVIGFAVDLANVWRFPYLCYKNGGGAFLVPYLLFMVIAGMPLFYMELALGQFNREGAAGVWKICPILKGVGFTVILISLYVGFFYNVIIAWALHYLFSSFTTELPWIHCNNSWNSPNCSDAHPGDSSGDSSGLNDTFGTTPAAEYFERGVLHLHQSHGIDDLGPPRWQLTACLVLVIVLLYFSLWKGVKTSGKVVWITATMPYVVLTALLLRGVTLPGAIDGIRAYLSVDFYRLCEASVWIDAATQVCFSLGVGFGVLIAFSSYNKFTNNCYRDAIVTTSINSLTSFSSGFVVFSFLGYMAQKHSVPIGDVAKDGPGLIFIIYPEAIATLPLSSAWAVVFFIMLLTLGIDSAMGGMESVITGLIDEFQLLHRHRELFTLFIVLATFLLSLFCVTNGGIYVFTLLDHFAAGTSILFGVLIEAIGVAWFYGVGQFSDDIQQMTGQRPSLYWRLCWKLVSPCFLLFVVVVSIVTFRPPHYGAYIFPDWANALGWVIATSSMAMVPIYAAYKFCSLPGSFREKLAYAIAPEKDRELVDRGEVRQFTLRHWLKV
notes: dopamine transporter (DAT); also called YFPsynDAT; source: HEK293 cells stably expressing YFP–DAT, in or on cells; not shown: YFP, N-terminal, kept
stoichiometry N [3]: 3
stoichiometry N [4]: 4
stoichiometry N [5]: 2
